Test results: patent US20240325562A1 (LINXIS B V, published 2024)
Positions count from the first letter of the chain named.

Legend:
[1] = biological target: T1, recombinant human extracellular domain of IGF2R (human, UniProt P11717 41-2304); assay: competition assay on immobilized hIGF2R-ECD, competitor for 13F11-A647
T1 construct: extracellular domain; Recombinant, immobilized on plates; also called hIGF2R-ECD; human IGF2R ectodomain (ECD)
Description: Biparatopic VHH constructs contain two VHH which bind to a different epitope, i.e. which are non-competitive binders. To identify (a) pair(s) of non-competitive binders, competition assays were performed. In the example shown, an Alexa fluor-conjugate of the high affine VHH 13F11 was used as the reporter VHH (13F11-A647, see example 10.2). In the assay, a non-saturating amount (10 nM) of 13F11-A647 was incubated with immobilized hIGF2R-ECD in the presence or absence of 250 nM unconjugated competitor VHH to allow competition to take place.

mouse serum albumin = biological target: T2, mouse serum albumin (mouse, UniProt P07724 25-608); assay: binding assay of the IRDye800 conjugate on serum albumin
T2 construct: also called MSA
T2 sequence (P07724 25-608 limits assumed): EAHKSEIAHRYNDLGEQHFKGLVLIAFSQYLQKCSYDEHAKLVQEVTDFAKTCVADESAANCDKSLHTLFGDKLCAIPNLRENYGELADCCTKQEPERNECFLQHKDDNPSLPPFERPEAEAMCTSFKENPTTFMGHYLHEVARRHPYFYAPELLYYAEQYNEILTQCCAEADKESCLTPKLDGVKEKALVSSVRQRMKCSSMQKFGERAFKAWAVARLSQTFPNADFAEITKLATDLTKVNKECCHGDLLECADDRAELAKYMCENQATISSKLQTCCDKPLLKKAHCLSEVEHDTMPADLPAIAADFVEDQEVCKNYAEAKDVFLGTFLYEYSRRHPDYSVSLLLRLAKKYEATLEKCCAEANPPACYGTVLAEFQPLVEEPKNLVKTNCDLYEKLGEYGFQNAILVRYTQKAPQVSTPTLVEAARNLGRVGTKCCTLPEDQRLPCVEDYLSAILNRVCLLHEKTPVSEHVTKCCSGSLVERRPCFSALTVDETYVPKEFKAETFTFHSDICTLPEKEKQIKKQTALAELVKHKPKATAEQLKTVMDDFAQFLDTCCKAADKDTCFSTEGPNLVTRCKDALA

rat serum albumin = biological target: T3, rat serum albumin (rat, UniProt P02770 25-608); assay: as above
T3 construct: also called RSA

human serum albumin = biological target: T4, human serum albumin (human, UniProt P02768 25-609); assay: as above
T4 construct: also called HSA

rat IGF2R on cells [2] = biological target: T5, rat IGF2R on cells (rat, UniProt A0A8I6GLL6 43-2479); assay: cell-based or functional assay
human IGF2R on cells [3] = biological target: T6, human IGF2R on cells (human, UniProt P11717 41-2491); assay: cell-based or functional assay
[4] = biological target: T7, full-length human PDGFRB on cells (human, UniProt P09619 33-1106); assay: binding assay on cells transgenically expressing human PDGFRB, FIG. 15C
T7 construct: whole, on cells; also called hPDGFRB; SCC-hPDGFRB
T7 sequence (P09619 33-1106): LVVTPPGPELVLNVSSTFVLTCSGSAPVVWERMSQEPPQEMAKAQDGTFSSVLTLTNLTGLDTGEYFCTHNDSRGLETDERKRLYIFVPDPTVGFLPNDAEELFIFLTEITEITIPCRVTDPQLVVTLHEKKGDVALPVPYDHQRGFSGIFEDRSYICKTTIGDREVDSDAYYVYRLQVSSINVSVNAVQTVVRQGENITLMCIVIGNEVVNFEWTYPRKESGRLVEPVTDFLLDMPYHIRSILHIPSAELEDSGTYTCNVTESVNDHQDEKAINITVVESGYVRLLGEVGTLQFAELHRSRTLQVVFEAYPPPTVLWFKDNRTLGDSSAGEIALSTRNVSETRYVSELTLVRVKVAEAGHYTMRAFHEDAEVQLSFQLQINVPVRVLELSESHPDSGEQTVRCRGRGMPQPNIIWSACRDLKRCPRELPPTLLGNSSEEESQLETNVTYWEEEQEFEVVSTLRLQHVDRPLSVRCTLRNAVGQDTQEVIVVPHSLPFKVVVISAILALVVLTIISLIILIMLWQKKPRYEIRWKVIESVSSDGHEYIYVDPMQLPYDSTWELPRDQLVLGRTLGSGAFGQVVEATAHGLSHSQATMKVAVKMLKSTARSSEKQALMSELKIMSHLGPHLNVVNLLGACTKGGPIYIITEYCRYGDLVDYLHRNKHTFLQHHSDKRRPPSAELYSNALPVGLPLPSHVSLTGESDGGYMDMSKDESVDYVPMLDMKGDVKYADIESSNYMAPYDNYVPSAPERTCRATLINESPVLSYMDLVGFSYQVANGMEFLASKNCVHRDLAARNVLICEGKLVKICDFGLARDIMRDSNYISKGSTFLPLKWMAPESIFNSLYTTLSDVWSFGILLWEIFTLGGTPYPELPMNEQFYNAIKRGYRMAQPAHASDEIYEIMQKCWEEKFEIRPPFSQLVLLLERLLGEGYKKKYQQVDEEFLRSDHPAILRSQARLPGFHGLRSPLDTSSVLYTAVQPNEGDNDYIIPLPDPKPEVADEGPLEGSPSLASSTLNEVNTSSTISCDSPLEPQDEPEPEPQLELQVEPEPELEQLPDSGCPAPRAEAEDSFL

[5] = biological target: T8, recombinant hPDGFRB ectodomain (human, UniProt P09619 33-532); assay: competition ELISA on human PDGFRB ECD, IRDye800-SP26P as reporter and unconjugated SP26P as competitor
T8 construct: extracellular domain; also called hPDGFRB-ECD; human PDGFRB ECD
T8 sequence (P09619 33-532): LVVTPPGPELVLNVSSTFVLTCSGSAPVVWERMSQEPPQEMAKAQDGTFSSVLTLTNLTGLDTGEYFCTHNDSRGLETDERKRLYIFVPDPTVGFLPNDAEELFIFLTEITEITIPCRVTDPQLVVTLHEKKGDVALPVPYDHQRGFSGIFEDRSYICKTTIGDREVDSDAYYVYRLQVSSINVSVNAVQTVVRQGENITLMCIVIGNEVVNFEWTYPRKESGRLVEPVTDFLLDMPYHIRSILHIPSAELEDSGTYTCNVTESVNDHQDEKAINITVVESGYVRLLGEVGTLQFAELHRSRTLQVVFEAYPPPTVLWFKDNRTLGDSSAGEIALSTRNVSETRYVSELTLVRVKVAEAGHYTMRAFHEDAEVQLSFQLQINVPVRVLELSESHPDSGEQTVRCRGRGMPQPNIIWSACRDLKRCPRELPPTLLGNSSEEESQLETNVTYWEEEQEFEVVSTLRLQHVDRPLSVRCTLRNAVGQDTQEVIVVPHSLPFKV

human IGF2R on cells [6] = biological target: T6, human IGF2R on cells; assay: binding assay on SCC cells transgenically expressing human IGF2R
Description: (§1) To examine whether 13F11-13E8 is cross-reactive against rodent IGF2R, the construct as well as its corresponding monomeric VHHs were conjugated to IRDye800CW (F11E8-IRD800, conjugation method as described in example 10.2) and the binding affinity was determined using a binding assay on SCC cells that transgenically expressed either murine IGF2R (mIGF2R), rIGF2R, or hIGF2R (FIGS. 12A-D).

murine IGF2R on cells = biological target: T9, murine IGF2R on cells (murine, UniProt Q07113 36-2483); assay: binding assay on SCC cells transgenically expressing murine IGF2R
T9 construct: whole, on cells; also called mIGF2R
T9 sequence (Q07113 36-2483): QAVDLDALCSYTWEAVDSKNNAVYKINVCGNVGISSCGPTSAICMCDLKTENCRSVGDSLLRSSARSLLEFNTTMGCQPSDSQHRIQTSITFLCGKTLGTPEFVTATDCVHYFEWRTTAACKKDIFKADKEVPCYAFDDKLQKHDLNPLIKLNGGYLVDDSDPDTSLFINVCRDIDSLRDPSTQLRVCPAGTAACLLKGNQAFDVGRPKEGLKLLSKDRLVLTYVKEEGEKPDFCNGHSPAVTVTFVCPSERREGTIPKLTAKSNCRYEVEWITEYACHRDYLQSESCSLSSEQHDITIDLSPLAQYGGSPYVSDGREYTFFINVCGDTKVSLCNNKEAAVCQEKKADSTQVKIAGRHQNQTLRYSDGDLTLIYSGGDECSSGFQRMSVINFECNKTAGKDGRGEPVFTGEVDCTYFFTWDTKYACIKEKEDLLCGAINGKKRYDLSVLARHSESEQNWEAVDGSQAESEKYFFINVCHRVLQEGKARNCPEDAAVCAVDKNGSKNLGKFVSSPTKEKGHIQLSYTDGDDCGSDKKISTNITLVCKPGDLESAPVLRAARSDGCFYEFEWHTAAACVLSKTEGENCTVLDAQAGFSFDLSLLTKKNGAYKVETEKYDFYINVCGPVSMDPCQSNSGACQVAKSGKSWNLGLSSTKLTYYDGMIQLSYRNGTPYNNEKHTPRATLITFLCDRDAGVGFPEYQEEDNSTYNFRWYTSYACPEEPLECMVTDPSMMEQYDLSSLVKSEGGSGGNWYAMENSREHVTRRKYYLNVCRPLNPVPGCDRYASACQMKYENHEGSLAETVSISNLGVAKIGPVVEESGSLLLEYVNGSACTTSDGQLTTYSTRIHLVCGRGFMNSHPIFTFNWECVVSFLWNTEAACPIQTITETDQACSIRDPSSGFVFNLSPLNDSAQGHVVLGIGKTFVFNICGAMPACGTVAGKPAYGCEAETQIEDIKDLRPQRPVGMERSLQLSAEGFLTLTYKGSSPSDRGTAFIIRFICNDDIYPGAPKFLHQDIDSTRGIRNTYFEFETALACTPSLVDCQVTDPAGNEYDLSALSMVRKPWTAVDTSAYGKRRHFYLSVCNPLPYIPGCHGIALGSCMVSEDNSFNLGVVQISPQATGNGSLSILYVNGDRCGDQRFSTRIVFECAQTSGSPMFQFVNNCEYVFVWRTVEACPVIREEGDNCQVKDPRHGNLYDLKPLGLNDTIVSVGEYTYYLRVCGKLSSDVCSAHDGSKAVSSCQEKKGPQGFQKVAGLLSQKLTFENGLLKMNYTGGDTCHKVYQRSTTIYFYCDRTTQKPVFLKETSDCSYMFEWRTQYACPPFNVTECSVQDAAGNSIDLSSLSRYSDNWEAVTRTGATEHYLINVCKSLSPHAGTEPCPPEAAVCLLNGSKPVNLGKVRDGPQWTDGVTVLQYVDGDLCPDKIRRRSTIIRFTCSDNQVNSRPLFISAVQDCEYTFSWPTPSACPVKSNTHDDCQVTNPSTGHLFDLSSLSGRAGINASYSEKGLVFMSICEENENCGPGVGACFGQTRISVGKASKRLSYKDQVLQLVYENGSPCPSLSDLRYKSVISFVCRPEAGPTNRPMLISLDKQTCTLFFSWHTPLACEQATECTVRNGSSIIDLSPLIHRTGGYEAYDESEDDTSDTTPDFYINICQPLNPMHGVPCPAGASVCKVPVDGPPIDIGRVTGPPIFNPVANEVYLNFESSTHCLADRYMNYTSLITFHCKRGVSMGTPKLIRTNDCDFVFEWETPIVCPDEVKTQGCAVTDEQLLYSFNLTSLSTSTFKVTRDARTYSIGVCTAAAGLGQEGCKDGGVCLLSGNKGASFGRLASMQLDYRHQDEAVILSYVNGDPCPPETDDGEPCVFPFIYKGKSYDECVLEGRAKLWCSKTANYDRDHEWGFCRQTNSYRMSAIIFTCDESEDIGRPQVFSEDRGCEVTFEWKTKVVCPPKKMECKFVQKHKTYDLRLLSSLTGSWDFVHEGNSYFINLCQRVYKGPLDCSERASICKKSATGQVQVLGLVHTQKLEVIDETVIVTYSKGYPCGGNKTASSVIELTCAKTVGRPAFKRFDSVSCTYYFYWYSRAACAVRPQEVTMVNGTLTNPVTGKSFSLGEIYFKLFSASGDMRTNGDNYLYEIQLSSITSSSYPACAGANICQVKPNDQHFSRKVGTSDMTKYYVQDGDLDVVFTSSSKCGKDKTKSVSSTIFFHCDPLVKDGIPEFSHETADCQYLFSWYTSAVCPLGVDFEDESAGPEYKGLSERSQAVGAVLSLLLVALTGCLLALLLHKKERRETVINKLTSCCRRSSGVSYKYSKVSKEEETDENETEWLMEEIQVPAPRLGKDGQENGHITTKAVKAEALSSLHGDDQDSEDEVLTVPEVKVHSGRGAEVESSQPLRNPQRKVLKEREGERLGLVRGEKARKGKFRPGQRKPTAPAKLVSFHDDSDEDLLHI
Description: as §1

rat IGF2R on cells [7] = biological target: T5, rat IGF2R on cells; assay: binding assay on SCC cells transgenically expressing rat IGF2R
Description: as §1

[8] = biological target: T1, recombinant human extracellular domain …; assay: direct binding assay of the fluorescent conjugate on immobilized hIGF2R-ECD, one-site specific binding fit
Description: These conjugates were then subjected to direct binding assays on immobilized hIGF2R-ECD, meaning that plates were read out immediately after washing, without additional detection steps. […] For detailed analysis, binding parameters KD and Bₘₐₓ were calculated in Graphpad (version 8.3), using one-site specific binding analysis (FIG. 8D).

[9] = biological target: T1, recombinant human extracellular domain …; assay: binding assay on immobilized hIGF2R-ECD, detection with anti-VHH antibody
Description: The 15 unique hIGF2R-binding VHH (Example 2.1, FIG. 2) were produced and purified as described in examples 3 and 4. The apparent affinities were determined through binding assay on immobilized hIGF2R-ECD. Briefly, three-fold serial dilution series, starting from 1 μM, of each VHH were plated onto hIGF2R-ECD coated plates. VHH were allowed to bind for two hours after which plates were washed. Then, bound VHH was detected using a VHH-specific IgG antibody, followed by an IRD800CW-conjugated IgG-specific antibody. Plates were read out by fluorimetry.

B1: 13G10 (VHH)
VHH: EVQLVESGGGLVQAGGSLRLSCAASGLTFSSYTMAWYRQAPGKEREVVAAISSGDSIYHEDSVQGRFIISRDNAKNTVYLQMNSLKAEDTAVYYCRANGPGTYWGQGTQVTVSS
notes: On phage in the phage ELISA; purified from E. coli in the other assays
B1: binds [1].

B2: 13C11 (VHH)
VHH: B1 VHH with D61G
notes: as for B1
B2: binds [1].

B3: 13F11-13E8-ABD-IRD800 (other)
chain: EVQLVESGGRLVQPGDSLRLSCAASGRTFSDNAMGWFRQAPGKERRFVAGISWAGGSTYYSDSVKGRFTISRDNAKNTVYLQMNSLKPEDTAVYYCAAGLRAWVQRMPKDYNYWGQGTQVTVSSGGGGSGGGGSGGGGSEVQLVESGGGLVQAGGSLRLSCAASRSISPMGWYRQAPGKQRELVAIMPSSGPPIYADSVQGRFTISRDNAKNTVYLQMNSLKPEDTAVYYCNVGGGYWGQGTQVTVSSLAEAKVLANRELDKYGVSDYYKNLINNAKTVEGVKALIDEILAALP
B3 showed a Kd (mouse serum albumin) of about 200 nM, a Kd (rat serum albumin) of 30 nM and a Kd (human serum albumin) of about 200 nM.

B4: 13E8-13F11-IRD800 (bispecific antibody, not shown: small tags and cut ends)
chain: EVQLVESGGGLVQAGGSLRLSCAASRSISPMGWYRQAPGKQRELVAIMPSSGPPIYADSVQGRFTISRDNAKNTVYLQMNSLKPEDTAVYYCNVGGGYWGQGTQVTVSSGGGGSGGGGSGGGGSEVQLVESGGRLVQPGDSLRLSCAASGRTFSDNAMGWFRQAPGKERRFVAGISWAGGSTYYSDSVKGRFTISRDNAKNTVYLQMNSLKPEDTAVYYCAAGLRAWVQRMPKDYNYWGQGTQVTVSS
modifications: IRDye 800CW coupled by maleimide to the C-terminal free cysteine, which is not in the letters
For B4, the “endocytic rate constant, ke” value (rat IGF2R on cells [2]) was about 0.7 min⁻¹ and the “endocytic rate constant, ke” value (human IGF2R on cells [3]) was about 1.5 min⁻¹.

B5: SP02P-SP26P (bispecific antibody, not shown: small tags and cut ends)
chain: EVQLVESGGGLVQAGGSLRLSCAASESISSIEQMGWFRQAPGKQRALVAINTYGGRTVYTNSVEGRFTMSRDSAKNMVYLQMTSLEPEDTAVYYCYAQTTAWRGGVWGQGTQVTVSSGGGGSGGGGSGGGGSEVQLVESGGGLVQAGGSLRLSCAASGRSFSSSVMGWFRQTPGKEREFVAATRWTAASTHYADSVKGRFTISRDHAENAVFLQMNSLKPEDTAVYYCAAGNYLDTAQYRYNYWGQGTQVTVSS
notes: also called SP02-SP26P
B5 was tested, and the Kd [4] was under 5 nM.

B6: SP26P (VHH)
VHH: EVQLVESGGGLVQAGGSLRLSCAASGRSFSSSVMGWFRQTPGKEREFVAATRWTAASTHYADSVKGRFTISRDHAENAVFLQMNSLKPEDTAVYYCAAGNYLDTAQYRYNYWGQGTQVTVSS
modifications: In the competition assay the reporter copy carried IRDye800 on the C-terminal cysteine, which is not in the letters.
notes: From libraries 3 and 4 (raised against rPDGFRB)
B6: binds [5].

B7: 13F11-13E8-IRD800 (bispecific antibody)
chain: EVQLVESGGRLVQPGDSLRLSCAASGRTFSDNAMGWFRQAPGKERRFVAGISWAGGSTYYSDSVKGRFTISRDNAKNTVYLQMNSLKPEDTAVYYCAAGLRAWVQRMPKDYNYWGQGTQVTVSSGGGGSGGGGSGGGGSEVQLVESGGGLVQAGGSLRLSCAASRSISPMGWYRQAPGKQRELVAIMPSSGPPIYADSVQGRFTISRDNAKNTVYLQMNSLKPEDTAVYYCNVGGGYWGQGTQVTVSS
modifications: IRDye 800CW coupled by maleimide to the C-terminal free cysteine, which is not in the letters
notes: Biparatopic tandem VHH; also called F11E8-IRD800; IRDye800-conjugated 13F11-13E8 (F11E8); not shown: C-terminal tail: free Cys, possible thrombin site and His6 tag
In the case of B7, the Kd (human IGF2R on cells [6]) is reported as under 10 nM, the “endocytic rate constant, ke” value (rat IGF2R on cells [2]) is reported as about 0.7 min⁻¹ and the “endocytic rate constant, ke” value (human IGF2R on cells [3]) is reported as about 1.5 min⁻¹. It also gave a Kd (murine IGF2R on cells) of under 10 nM and a Kd (rat IGF2R on cells [7]) of under 10 nM.

B8: 13F11-A647 (VHH)
VHH: EVQLVESGGRLVQPGDSLRLSCAASGRTFSDNAMGWFRQAPGKERRFVAGISWAGGSTYYSDSVKGRFTISRDNAKNTVYLQMNSLKPEDTAVYYCAAGLRAWVQRMPKDYNYWGQGTQVTVSS
modifications: Alexa Fluor 647 is coupled by maleimide chemistry to the C-terminal free cysteine of the expression tail. The dye, that cysteine and the tag are not in the letters.
notes: Fluorescent conjugate of monomeric 13F11; also called labelled 13F11
Work on B8 yielded a Kd [8] of 1 nM.

B9: 13F11 (VHH)
VHH: B8 VHH
notes: On phage in the phage ELISA; purified from E. coli in the other assays; also called native 13F11; unconjugated 13F11
B9 was tested, and the Kd [9] was 0.23 nM.
